The labels stand for the following.
T1: cynomolgus Trop-2-His protein (cynomolgus, UniProt P09758 27-274 (human entry))
T1 construct: also called cynmolgus Trop-His; Kactus Cat #TRP-CM121; not shown: His tag
T1 chain: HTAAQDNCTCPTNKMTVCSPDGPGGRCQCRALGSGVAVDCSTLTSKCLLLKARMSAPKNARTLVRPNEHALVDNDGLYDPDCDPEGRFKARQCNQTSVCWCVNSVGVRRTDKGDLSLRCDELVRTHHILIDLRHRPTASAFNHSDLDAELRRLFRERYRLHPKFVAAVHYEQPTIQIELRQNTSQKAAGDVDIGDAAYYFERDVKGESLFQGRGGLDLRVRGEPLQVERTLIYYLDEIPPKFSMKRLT

T2: human Trop-2-His protein (human, UniProt P09758 27-274)
T2 construct: extracellular domain; Assay paragraphs say only 'Trop-2-His'; also called hTrop-2; Kactus Cat #TRP-HM121; not shown: His tag
T2 sequence (looked up): T1 chain with V36M, N67S, S139G, V204I

B1: 2H5 (antibody, V domains shown)
VH: QSLEESGGDLVQPGASLTLTCKASGFDLNNYSILWVRQAPGKGLEWIGCIYFSGGSTYYANWAKGRFAISKTSSTTVTLQMTSLTAADTATYFCARDDGTTSYYLNLWGPGTLVTVSS
VL: YDMTQTPASVSEPVGGTVTIKCQASEDIYNLLAWYQQKPGQPPKLLIYAASDLESGVPSRFKGSGSGTEYTLTISDLECADAATYYCQQAYTVGNIDNAFGGGTEVVVK
notes: Rabbit-derived clone; LEM construct: VH + rabbit IgG CH1 + human IgG1 CH2-CH3
B2: 10E12 (antibody, V domains shown)
VH: B1 VH with S32A, I33M, F52I, S56T, Y59F, N61S, K64T
VL: B1 VL with E12A, P13A, N30S, A49D, E54A, A80D, V93I
notes: as for B1
B3: 10D3 (antibody, V domains shown)
VH: B1 VH with S24A, I33M, F52I, S56T, N61S, A68T, T100S
VL: B1 VL with N30R, A49D, E54A, D76G, E78Q, A90G, V93I, A99S
notes: as for B1
B4: 8H2 (antibody, V domains shown)
VH: B1 VH with S32A, I33M, F52I, S56T, Y59F, N61S, K64T, T100S
VL: B1 VL with E12A, P13A, N30S, A49D, E54A, D76A, A80D, V93I, A99T
notes: as for B1
B5: 10F12 (antibody, V domains shown)
VH: B1 VH with K22R, I33M, F52I, S56T, Y59F, N61S, K64T, T100S
VL: B1 VL with E12A, P13A, N30S, Y48F, A49D, E54A, A80D, V93I
notes: as for B1
B6: 12G6 (antibody, V domains shown)
VH: QEQLKESGGGLVQPGGSLTLSCKASGFDFNNYGVSWVRQAPGKGLEWIGYIYPAYHNTYYATWVNGRFTISSHNAQNTLYLQLNTLTAADTATYFCARDAGNTDYNFNLWGPGTLVTVSS
VL: DVVMTQTPASVEVAVGGTVTIKCQASEDIESYLAWYQQKPGQPPKLLIYEASKLASGVSSRFSGGGYGTEFTLTISGVECADAATYYCQQALTIGNVDNPFGGGSEVVVK
notes: as for B1
B7: 2H3 (antibody, V domains shown)
VH: B6 VH with V12G, A100T, N102T
VL: B6 VL with I94V
notes: as for B1
B8: 9A5 (antibody, V domains shown)
VH: B6 VH with G49A, A54T, N102G
VL: B6 VL with V13A, K22N, E27Q, D28S
notes: as for B1

This is an account of results in US20250206841A1 (ADEPT THERAPEUTICS, published 2025).

Changes are numbered by the printed parent chain.

The target in the first experiment is T1, cynomolgus Trop-2-His protein. As to the kind of experiment: BLI (Gator Prime), LEM supernatant Ab on HFC probe. As for the experimental part:
(§1) After three times of regeneration and neutralization of HFC probe (Gator, Cat #160003), LEM transfection supernatant samples to be tested in K buffer was diluted 1:1 in K buffer and immobilized onto HFC probe. […] The association and dissociation of human or cynomolgus Trop-2-His antigen from antibody was measured on BLI machine Gator Prime. Affinity was calculated using Gator Bio analysis software. Blank control was used for reference subtraction. 1 μg/ml of Sacituzumab govitecan was used as positive control.
(§2) Table 23 below summarizes the binding affinity of exemplary anti-Trop-2 antibodies in LEM transfection supernatant samples to human and cynomolgus Trop-2 using Gator.
B1: the Kd worked out at 0.582 nM, the koff is 0.00027 s⁻¹ and the kon turned out to be 460000 M⁻¹ s⁻¹.

Turning to B2, the Kd was 0.168 nM, the koff amounted to 6.8e-05 s⁻¹ and the kon is 605000 M⁻¹ s⁻¹.

In turn, B3 had a Kd of 0.455 nM, a koff of 0.00019 s⁻¹ and a kon of 454000 M⁻¹ s⁻¹.

The molecule B4 had a Kd of 0.221 nM, a koff of 9.6e-05 s⁻¹ and an on-rate (kon) of 677000 M⁻¹ s⁻¹.

The molecule B5 returned a dissociation constant Kd not above 0.132 nM, a koff of approximately 5.62e-05 s⁻¹ and a kon of 426000 M⁻¹ s⁻¹.

In turn, B6 displayed a Kd of 0.911 nM, a koff of 0.00047 s⁻¹ and a kon of 603000 M⁻¹ s⁻¹.

B7 showed a Kd of 0.113 nM, a koff of 0.00013 s⁻¹ and a kon of 727000 M⁻¹ s⁻¹.

Molecule B8 came in with a dissociation constant Kd of 0.698 nM, a dissociation rate constant (koff) of 0.00041 s⁻¹ and an on-rate constant (kon) of 919000 M⁻¹ s⁻¹.

Another experiment concerns the target T2, human Trop-2-His protein. As to the kind of experiment: BLI (Gator Prime), LEM supernatant Ab on HFC probe. As for the experimental part:
as §1, §2
Take B1: the Kd is 0.822 nM, the koff is 0.00027 s⁻¹ and the kon came to 331000 M⁻¹ s⁻¹.

B2 returned a Kd of 0.173 nM, a koff of 6.8e-05 s⁻¹ and an on-rate constant (kon) of 391000 M⁻¹ s⁻¹.

As for B3, binding was characterised by a dissociation constant (Kd) of 0.562 nM, the koff stood at 0.00019 s⁻¹ and the kon was 339000 M⁻¹ s⁻¹.

As for B4, the Kd is 0.227 nM, the koff is 9.6e-05 s⁻¹ and the on-rate (kon) came out at 423000 M⁻¹ s⁻¹.

Molecule B5 yielded a Kd of 0.173 nM, a koff of 6.8e-05 s⁻¹ and a kon of 391000 M⁻¹ s⁻¹.

As for B6, binding was put at a Kd of 1.22 nM, the koff was 0.00047 s⁻¹ and the kon was determined as 386000 M⁻¹ s⁻¹.

Turning to B7, binding was put at a Kd of 0.269 nM, the off-rate (koff) was determined as 0.00013 s⁻¹ and the kon amounted to 488000 M⁻¹ s⁻¹.

Take B8: binding was put at a Kd of 0.767 nM, the koff worked out at 0.00041 s⁻¹ and the kon is 529000 M⁻¹ s⁻¹.
